Source: the nanobody polyreactivity screen of Harvey et al. (2022)

Assay: yeast display, Sf9 membrane polyspecificity reagent, FACS + sequencing; frameworks hold sequencing errors
In short: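 Nanobodies from a synthetic yeast display library (Saccharomyces cerevisiae BJ5465), induced 36–48 hours with galactose, were stained 1 hour at 4 °C with 10% biotinylated, detergent-solubilized Sf9 membrane reagent, enriched on streptavidin microbeads, then FACS-sorted. Anti-HA (expression) and streptavidin (reagent binding) fluorescence set low and high (top ~1%) gates. Polyreactivity labels come from the gate of origin. Genes were colony-PCR amplified, MiSeq 2 × 250 sequenced and filtered by CDR length.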

| Sequence | polyreactivity (PSR sort gate) |
| --- | --- |
| QVQLVDSCGVLVQAGGSLRLSCAASGITFNLYAMGWYRQAPGKERELVAAISNVGSTKYADSVKGRFTISRDNAKNTVYLQMNSLKPEDTAVYYCAAAQWAYWLLYNYWGQGTQVTVSS | low polyreactivity |
| QVQLVDSGGCLVHAGASLRLSCAASGGIFRTYAMGWARQAAGKERELVAAITFSAGSTFYADSVKGRYTISRDNAKNTVYLQMNSLKPEDTAVYDCATPGYILGLYQYWHHYDYWGQGTQVTVSS | low polyreactivity |
| QVQLVDSGGCLVQAGGSLRLSCASSGRIIAHYAMGWYRQSPGKESELVAAISTRGGSTYYADSVKGRFTISRDNEKNTVYLQMNSLKPEDTAVYYCAAKSNNIATMDYWGQGTQVTVSS | low polyreactivity |
| QVQLVDSGGGLDQAGGSLRLSCAASGSNLRLKAMGWYRQAPGKERELVADITRAGSTYYADSVKGRFTISRDNAKNTVYLQMNSLKPEDTAVYYCAADAYTGQIPYYYFEHYYWGHGTQVTVSS | high polyreactivity |
| QVQLVDSGGGLFQAGGSLSLICAASASKYDINAMGRYRQAPGKETELVADISWSGGRTYYADSVKGRFTISRDNAKNTVYLKMNSLKPEETAVYYCNAQDSRFWYAEYDSWGQGTQVTVSS | low polyreactivity |
| QVQLVDSGGGLVKAGGSLRLSCAASGSTFDTNVMGWYRPAPGKERELVAAIDVSGGSTYYADSVKGRFTISRDNAKNYVYLQMYSLKPEDTAVFYSAAEDGLYGMDYWGQGSQVTVSS | low polyreactivity |
| QVQLVDSGGGLVPSGGSLRISCAASGRIFYPYAMGWYRQAPGKEREVVATITRTGSTYYADSVKGRFTISRDNAMNTVYLQMNSLKPEDTAVYYCNAGIYRPRVDYWGQGTQVTVSS | high polyreactivity |
| QVQLVDSGGGLVQAGASLRLRCAASVLTLYANAMGRYRQAPGKERELVAGIDNGGSTSYADSVKGRFTISRDNAKKTVYLQKNSLKPEDTAVYYCAAQRDSVGGRHYAQRWIYLMYYWGQGTQVTVSS | low polyreactivity |
| QVQLVDSGGGLVQAGCSLRLSCAASGRTFSNYAMGWYRQAPGKDRELVAAISWRGGSTYYADSVKGRFTISRDNAKNTVYLQMTSLKPEDTAVYYCAALPRYALGEDYWGQGTQVTVSS | high polyreactivity |
| QVQLVDSGGGLVQAGGILRLSCAASGRTISSYAMGWYRQAPGKERELVAAITRTGGRTYYAYSVKGRFTISRDNAKNTVYLQMNSLKPEDTAVYYCAATGIRYGVKYYYWGQGTQVTVSS | high polyreactivity |
| QVQLVDSGGGLVQAGGRLLLSCAASGRTFRKYTMGWYREAPGKERELVAAISSRGGSTYYADSVKGRFTISRDNAKYTVYLQMNSMKPEDTAVYYCDTDYITPSSEGDYWGQGTQVTVSS | high polyreactivity |
| QVQLVDSGGGLVQAGGRLRLSCAASGRTFVRYAMGWYRQAPGKERELVATIRWRGGSTYYADSVKGRFTISRDNAKNTVYLQMNSLKPDDTAVYYCAARRYSSGLTDDYWGQGTQVTVSS | high polyreactivity |
| QVQLVDSGGGLVQAGGRLRLSCAASGSTFIYNAMGWYRQAPGKERELVASISTSGGSTYYADSVKGRFTISRDNAKNTVYLQMNSLKPEDTAVYYCAKRYFFKYGYWGQGTQVTVSS | high polyreactivity |
| QVQLVDSGGGLVQAGGRLRLSCAASGVTIQPNARGWYRQAPGKERELVPSISWSDGSTYYADSVKGRFTISRDNAKNTVFLQMNSLKPEDTAVYYCAADFTYYDPPYRDYNYESWGQGTQVTVSS | low polyreactivity |
| QVQLVDSGGGLVQAGGSLRLICAASGFIFGKYAMGWYRQAPGKEWEFVAAITGNGGSTYYADSVKGRFTISRDNAKNTVYLQMNSLKPEDTAVYYCNADRGYRRRSGMDYWGQGTQLTVSS | low polyreactivity |
| QVQLVDSGGGLVQAGGSLRLRCAASGRIFWYYAMGWYRQAPGKERELVASITRGNNTYYADSVKGRFTISRDNAKNTVYLQMNSLKPEVTAVFYCAKRYIYSYYWGQGTQVTVSS | high polyreactivity |
| QVQLVDSGGGLVQAGGSLRLSCAASGFIFRSYALGWYRQAPGKERELVAAISRRGGSTYYADSVKGRFTISRDHAKNTVYLQMNSLKPEDTAVYYCAAESRGVYGYAQSDFWGQGTQVTVSS | high polyreactivity |
| QVQLVDSGGGLVQAGGSLRLSCAASGFIFSSYAMGWYRQAPGKERELVAAITRSGGRTYYADSVKGRFTISRDNAKNTVYLQMNSLKQEDTAVYYCAAPNGAGYRGDYWGQGTQVTVSS | high polyreactivity |
| QVQLVDSGGGLVQAGGSLRLSCAASGFTFAYYALGWYRPAPGKEREFVAAITSGGRTNYADSVKGRFTISRDNAKNTVYLQMNSLKPEDTAVYYCAKYRRGGSRHYSVFNHDYWGQGTQVTVSS | high polyreactivity |
| QVQLVDSGGGLVQAGGSLRLSCAASGFTFAYYAMGWYRQAPGKERELVAGISWRGGRTYYADSVKGRFTISRDNAKNTVYLQMNSLKPEDTAVYYCAKQPGNFGRFDYWGQGTKVTVSS | high polyreactivity |
| QVQLVDSGGGLVQAGGSLRLSCAASGFTFDGYAMGWYRQAPGQEREFVATISLSGGSTYYADSVKGRCTISRDNAKNTVYLQMNSLNPEDTAVYYCGKDTQPYLIDGFEYWGQGTQVTVSS | low polyreactivity |
| QVQLVDSGGGLVQAGGSLRLSCAASGFTFQRKAMGWYRQATGKERELVAAISKSGGSTYYADSVKARFTISRDNEKNTVYLEMNSLKPEDTAVYYCASTALFSGLTKRYYWGQGTQVTVSS | high polyreactivity |

| Sequence | polyreactivity (PSR sort gate) |
| --- | --- |
| QVQLVDSGGGLVQAGGSLRLSCAASGFTFQYYSMGWYRQATGKERELVADISSSGDSTNYADSVKGRFTISRDTAKNTVYLQMNSLKPEDTAVYYCAADYSQPNFEYYYWGQGTQVTVSS | low polyreactivity |
| QVQLVDSGGGLVQAGGSLRLSCAASGGIFYHNAMGWYRQAPGKERELVAAISGRGGRTYYADSVKGRFTISRDNAKNTVYLQMNSLKPEDTAVYYCYADQYKDFDYWGQGTQVTVSS | low polyreactivity |
| QVQLVDSGGGLVQAGGSLRLSCAASGIIFSDYAMGWYRKAPGIERELVAAISRNGGSTYYADSVKGRFTISRDIAKYTVYLQMNSLKPEDTAVYYCAATRRYRYNWGQGTQVTVSS | high polyreactivity |
| QVQLVDSGGGLVQAGGSLRLSCAASGITFDHYAMGWSRQAPGKEREFVAAIDDIGGDTYYADSVKGRFTISRDNAKNTVYLQMNSLKPEATAVYYCAADYGYYSRFYYWGQGTQVTVSS | low polyreactivity |
| QVQLVDSGGGLVQAGGSLRLSCAASGITFYDYTMGWYRQAPGKERELVAAITSSGVSTYYADSVKGRFTISRDNAKNTVYLQMNSLKPEDTAVYYCAADLYEDPNGEDDYWGQGTQVTVSS | low polyreactivity |
| QVQLVDSGGGLVQAGGSLRLSCAASGITFYYYAMGSYRQAPGKETELVAAISSRGGSTYYADSVKGRFTISRDNAKNTVYFQMNSLKQEDTAVYYCAADYYSSYYSSYIKSYYWGLGTQVTVSS | high polyreactivity |
| QVQLVDSGGGLVQAGGSLRLSCAASGITLSWYAKGWYRQAPGQERELVAGISGRGGRTYYADSVKGRFTISRDNAKNTVYLQMNSLKPEDTAVYYCAAVSPGYRSYDYWGQGTQVTVSS | high polyreactivity |
| QVQLVDSGGGLVQAGGSLRLSCAASGITLYRYVMRWYRQAPGKESELVADISGRGTSTYYADSVKGPFTISRDNAKNTVYLQMNSLKPEDTAVYYCNAEYTKTGALVIPYTYYYAEDYWGQGTQVTVSS | low polyreactivity |
| QVQLVDSGGGLVQAGGSLRLSCAASGLIFAYYAMGWYRKAPGKERELVAAISSVGSTYYADSVKGRFTISRDNAKNTVYLQMNSLKPEDTSVYYCAAALYPYYWPEYNYWGQGTQVTVSS | high polyreactivity |
| QVQLVDSGGGLVQAGGSLRLSCAASGLIFSDYAMGWYRPAPGKERELVAAIRSGGRTYYADSVKGRFTISRDNATNTVYLEMNSLKPEDTAVYFCNKLYRRYPVPREYDYWGQGTQVTVSS | high polyreactivity |
| QVQLVDSGGGLVQAGGSLRLSCAASGLIFYHNTMGWSRQAPGKEREFVASISQSGGSTYYADSVKGRFTISRDNAKNTVYLQMNSLKPEDTAVYYCAKKVRRWRTMDYWGQGTQVTVSS | high polyreactivity |
| QVQLVDSGGGLVQAGGSLRLSCAASGLTFGFNAMGWYRQAPGKERELVAAISSGGSTYYADSVKGRFTISRDNAKNTVYLQMNSLKPEDTAVYYCATSVRQYGRTTYYYWGQGTQVTVSS | high polyreactivity |
| QVQLVDSGGGLVQAGGSLRLSCAASGLTFRYYAMGWYRQAPGKERELVASISWSGASTYYADSVKGRFTISRDNAKNTVYLQMNSLKPEDTAVYYCNAGYFGSYDYWGQGTQVTVSS | high polyreactivity |
| QVQLVDSGGGLVQAGGSLRLSCAASGLTFSKYAMGWYRQAPGKERELVATITRRGSSTYYADSVKGRFTISRDNAKNTVYLQMNSLKPEDTAVYYCNAVGVRRAIGYPSQTEYGYWGQGTQVTVSS | high polyreactivity |
| QVQLVDSGGGLVQAGGSLRLSCAASGNILRKYAMGWYRQAPGKERELVAAISSSGGRTYYADSVKGRFTISRDNAKNTVYLQMYSLKPEDTAVYYCAKDPYGRLQPRPRFGYWGQGTQVTVTS | high polyreactivity |
| QVQLVDSGGGLVQAGGSLRLSCAASGRIFDRNAMGWYRQAPGKERDLVARIDPGDDTNYADSVKGRFTISRDNAKNTVYLQMNSQKPEDTAVYYCATDPDYVLYRTAYYEYDYWGQGTQVTVSS | low polyreactivity |
| QVQLVDSGGGLVQAGGSLRLSCAASGRIFGQYAMGWYRDATGKERELVAAISWRGGTTYYADSVKGRFTISRDNAKNTVYLQMNSLKPEDTAVFYCNADVWVYPYDYWGQGTQVTVSS | low polyreactivity |
| QVQLVDSGGGLVQAGGSLRLSCAASGRIFKWTAMGWYRPAPGKERELVAAIRWSSGRTYYADSVKGRFTISRDNAKNTVYLQMNSLKPEDTAVSYCAANNGYGMDYWGQGTQVTVSS | high polyreactivity |
| QVQLVDSGGGLVQAGGSLRLSCAASGRIFRPYAMGWYREAPRKERELVAAISFSGGSTYYADSVKGRFTISRDNAKNTVYLQMNSVKPEDTAVYYCNAVFINKYGKYGDWGQGTQVTVSS | high polyreactivity |
| QVQLVDSGGGLVQAGGSLRLSCAASGRIFSRYAMGGYRQAPGKERQLVAAITIGGRTNYADSVKGRFTFSRDNAKNTVYLQMNSLKPEDSAVYYCAVVLYTRYPPRVRYYYWGQGTQVTVSW | high polyreactivity |
| QVQLVDSGGGLVQAGGSLRLSCAASGRIFYQNAMGWYRQAPGKETELVADNSSGGSTYYADSVKGRFTISRDNAKNTVYLQMNSLKPEDNAVYYCNTPSGPGTVGSYRRKWYGYWGQGTQLTVSS | low polyreactivity |
